The text below walks through data of paper doi:10.1101/2021.07.20.452843 (bioRxiv, 2021).

This series deals with the molecule itself. The series can be described thus: SEC. (In gel filtration, larger molecules generally elute earlier.)

B1: His-PodJ(1-635) (domain or fragment, Caulobacter crescentus, UniProt Q9ZG88 1-635, looked up)
chain: MTAASPWSVKGIDPKAREVAKDLARRSGMTLGEWLNRMIIEGDGQTADPRLAGDDVPNRAYLEIVKDDAPPRIEIAEHPADEVGRVALALDRLTQRIEAAEGRNAAAITGIDHSVRDALTRLGASEREQIAVAARFEGAVDELKTEQARATERLRRIESEAAGPRSAEALRALEGALGKVAGHLYEGEARTREAIATLEAKLNQQSSGDPSALVEAVVARLGERLEAAETRTSDALRELGASFQALDQRLGAVETANPATGVQEGLDSLAATLTQKMEAARLEMAAKLRESADGRFDRMERKLGEMAAHVQAAEQRSAQAIERMGREIVGVADAFNRRVHAAESRNASAIEQVGGEVARIAASVEHKLNRADSVQAQALEKLGGEIARITEKLAERIGSAERRNALAIDDVGEQVARVTERLNQRHERSSQELVDRIRQSEERTLRMLEEAREKIDSRLSEAQRKLEAAPPSPPPAQAPAPVATAQRPVPPAASPFEDNYFSQAASFSTSEDEADAFDAPPAPARSFEVAEFPAAEPEEPAFAHDDYAIADGFEPESPRYEVEPEVSDFAPAEPSRPMSTRDIIEQARAAARAAAASEGKGGKAKSAKKEKASKASGSLFSGFGGFSTKKSKARL
For the protein B1, the binding result is “binds”.
